Measured values from PMC3597701 (Nucleic Acids Research, 2013).

Target: origin recognition complex (ORC) (S. cerevisiae, UniProt P54784;P32833;P54790;P54791;P50874;P38826)
Test: in vitro pre-RC assembly assay on origin DNA beads

binding result	Binder
binds	Cdc6 (natural protein) MSAIPITPTKRIRRNLFDDAPATPPRPLKRKKLQFTDVTPESSPEKLQFGSQSIFLRTKALLQKSSELVNLNSSDGALPARTAEYEQVMNFLAKAISEHRSDSLYITGPPGTGKTAQLDMIIRQKFQSLPLSLSTPRSKDVLRHTNPNLQNLSWFELPDGRLESVAVTSINCISLGEPSSIFQKIFDSFQDLNGPTLQIKNMQHLQKFLEPYHKKTTFVVVLDEMDRLLHANTSETQSVRTILELFLLAKLPTVSFVLIGMANSLDMKDRFLSRLNLDRGLLPQTIVFQPYTAEQMYEIVIQKMSSLPTIIFQPMAIKFAAKKCAGNTGDLRKLFDVLRGSIEIYELEKRFLLSPTRGSLNSAQVPLTPTTSPVKKSYPEPQGKIGLNYIAKVFSKFVNNNSTRTRIAKLNIQQKLILCTIIQSLKLNSDATIDESFDHYIKAITKTDTLAPLQRNEFLEICTILETCGLVSIKKTKCKGKTKRFVDKIDVDLDMREFYDEMTKISILKPFLH
binds	Cdc6 N263A (sensor-1 mutant) (natural protein) MSAIPITPTKRIRRNLFDDAPATPPRPLKRKKLQFTDVTPESSPEKLQFGSQSIFLRTKALLQKSSELVNLNSSDGALPARTAEYEQVMNFLAKAISEHRSDSLYITGPPGTGKTAQLDMIIRQKFQSLPLSLSTPRSKDVLRHTNPNLQNLSWFELPDGRLESVAVTSINCISLGEPSSIFQKIFDSFQDLNGPTLQIKNMQHLQKFLEPYHKKTTFVVVLDEMDRLLHANTSETQSVRTILELFLLAKLPTVSFVLIGMAASLDMKDRFLSRLNLDRGLLPQTIVFQPYTAEQMYEIVIQKMSSLPTIIFQPMAIKFAAKKCAGNTGDLRKLFDVLRGSIEIYELEKRFLLSPTRGSLNSAQVPLTPTTSPVKKSYPEPQGKIGLNYIAKVFSKFVNNNSTRTRIAKLNIQQKLILCTIIQSLKLNSDATIDESFDHYIKAITKTDTLAPLQRNEFLEICTILETCGLVSIKKTKCKGKTKRFVDKIDVDLDMREFYDEMTKISILKPFLH
binds	Cdt1 (natural protein) MSGTANSRRKEVLRVPVIDLNRVSDEEQLLPVVRAILLQHDTFLLKNYANKAVLDALLAGLTTKDLPDTSQGFDANFTGTLPLEDDVWLEQYIFDTDPQLRFDRKCRNESLCSIYSRLFKLGLFFAQLCVKSVVSSAELQDCISTSHYATKLTRYFNDNGSTHDGADAGATVLPTGDDFQYLFERDYVTFLPTGVLTIFPCAKAIRYKPSTMATTDNSWVSIDEPDCLLFHTGTLLARWSQGMHTTSPLQIDPRANIVSLTIWPPLTTPISSKGEGTIANHLLEQQIKAFPKVAQQYYPRELSILRLQDAMKFVKELFTVCETVLSLNALSRSTGVPPELHVLLPQISSMMKRKIVQDDILKLLTIWSDAYVVELNSRGELTMNLPKRDNLTTLTNKSRTLAFVERAESWYQQVIASKDEIMTDVPAFKINKRRSSSNSKTVLSSKVQTKSSNANALNNSRYLANSKENFMYKEKMPDSQANLMDRLRERERRSAALLSQRQKRYQQFLAMKMTQVFDILFSLTRGQPYTETYLSSLIVDSLQDSNNPIGTKEASEILAGLQGILPMDISVHQVDGGLKVYRWNSLDKNRFSKLLQIHKSKQQD
